Experimental data reported in US20200140551A1 (GlaxoSmithKline, published 2020).

Legend:
[1] = molecular target: T1, human ICOS on human T cells (human, UniProt Q9Y6W8 21-167); assay: flow cytometry, activated human CD8 T cells, FITC MFI, median of donors
T1 construct: endogenous receptor on primary cells; also called ICOS on CD4+ and CD8+ T cells of healthy human donors
T1 sequence: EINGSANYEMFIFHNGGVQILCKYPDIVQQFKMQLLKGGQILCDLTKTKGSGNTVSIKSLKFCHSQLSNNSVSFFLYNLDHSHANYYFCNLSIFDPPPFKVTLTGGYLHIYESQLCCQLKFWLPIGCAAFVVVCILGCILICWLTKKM
Protocol: (§1) Either naive and/or activated CD3+ T cells were re-suspended in PBS with 0.1% BSA (FACS Buffer) containing Human FcR Blocking Solution at 2×10⁶ cells/mL (5 μl FcR Blocking Solution+[…] FACS Buffer per 1 mL). At a concentration of 2×10⁵ cells/well, 100 μl cells were placed into 2 mL 96 well Assay Blocks and incubated at room temperature for 15 minutes. During the incubation, a titration of the binding antibodies, anti-ICOS (H2L5 hIgG4PE) or IgG4 Isotype Control antibody was prepared as a 2× concentration. […] Following the binding incubation, cells were washed twice in 1 mL of FACS buffer, centrifuging at 400×g for 5 minutes at room temperature.
(§2) Data acquisition and compensation were performed on BD FACS instruments, LSR Fortessa X-20 or FACS Canto II using BD Diva (ver. 8.0) software. Data analysis employed Flow Jo software (ver.10.0.8r1). Results are reported as both MFI (Median Fluorescence Intensity) and Percent of cells positive for human IgG kappa light chain FITC staining out of the total live cells or appropriate parent population. EC50s were determined using Graphpad Prism 5 software (ver. 5.04) with non-linear regression of transformed data (X=(log(X)) using a variable slope with 4 parameters (log(Agonist) vs. response—Variable slope).

[2] = molecular target: T1, human ICOS on human T cells; assay: flow cytometry, activated human CD4 T cells, FITC MFI, donor 1149M52
Protocol: (§3) Binding of H2L5 hIgG4PE was assessed in both naive and activated CD3+ T cells.
as §1, §2

[3] = molecular target: T1, human ICOS on human T cells; assay: flow cytometry, activated human CD8 T cells, percent FITC positive, median of donors
Protocol: as §3, §1, §2

[4] = molecular target: T1, human ICOS on human T cells; assay: flow cytometry, activated human CD4 T cells, percent FITC positive, donor 1149M52
Protocol: as §3, §1, §2

[5] = molecular target: T1, human ICOS on human T cells; assay: flow cytometry, activated human CD4 T cells, percent FITC positive, median of donors
Protocol: as §3, §1, §2

[6] = molecular target: T1, human ICOS on human T cells; assay: flow cytometry, activated human CD4 T cells, FITC MFI, donor 1123F59
Protocol: as §3, §1, §2

[7] = molecular target: T1, human ICOS on human T cells; assay: flow cytometry, activated human CD8 T cells, percent FITC positive, donor 2100M39
Protocol: as §1, §2

[8] = molecular target: T1, human ICOS on human T cells; assay: flow cytometry, activated human CD4 T cells, FITC MFI, donor 1124F36
Protocol: as §3, §1, §2

[9] = molecular target: T1, human ICOS on human T cells; assay: flow cytometry, activated human CD8 T cells, FITC MFI, donor 1173F42
Protocol: as §1, §2

[10] = molecular target: T1, human ICOS on human T cells; assay: flow cytometry, activated human CD8 T cells, FITC MFI, donor 1124F36
Protocol: as §3, §1, §2

Cyno ICOS-Fc = molecular target: T2, Cyno ICOS-Fc (cynomolgus; rabbit, UniProt A0A2K5TQR6 21-140); assay: SPR, BIAcore T200; antibody captured on anti-human IgG (CM5), ICOS (rabbit Fc) as analyte at 1-256 nM, 25°C, 1:1 model
T2 construct: analyte in the BIAcore T200 run; also called cyno ICOS (rabbit Fc); cynomolgus ICOS; not shown: Rabbit Fc and any linker
T2 sequence: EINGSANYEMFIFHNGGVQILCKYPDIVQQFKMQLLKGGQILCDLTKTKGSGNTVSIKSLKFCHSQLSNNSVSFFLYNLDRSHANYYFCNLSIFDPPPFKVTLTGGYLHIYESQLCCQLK
Protocol: The binding kinetics affinity of the humanized H2L5 hIgG4PE antibody was determined used the BIAcore T200 Anti-human IgG on Fc2 of a CM5 chip Anti-ICOS H2L5 hIgG4PE captured on the surface. Anti-human IgG surface blocked with […] hIgG1 control to prevent non-specific binding of rabbit Fc. Human and cyno ICOS (rabbit Fc) passed over the captured antibodies at 256 nM, 64 nM, 16 nM, 4 nM and 1 nM. Buffer alone was used to double reference binding curves. MgCl₂ was used to regenerate surface. Run carried out at 25° C. Data fitted to 1:1 model using T200 evaluation software. Antibody concentration: 2.5 μg/mL
The ICOS binding data was fitted to a 1:1 kinetics model using the T200 data analysis software.

[11] = molecular target: T1, human ICOS on human T cells; assay: flow cytometry, activated human CD4 T cells, percent FITC positive, donor 1141F45
Protocol: as §1, §2

[12] = molecular target: T1, human ICOS on human T cells; assay: flow cytometry, activated human CD4 T cells, percent FITC positive, donor 2100M39
Protocol: as §1, §2

[13] = molecular target: T1, human ICOS on human T cells; assay: flow cytometry, activated human CD8 T cells, percent FITC positive, donor 1173F42
Protocol: as §1, §2

[14] = molecular target: T1, human ICOS on human T cells; assay: flow cytometry, activated human CD8 T cells, FITC MFI, donor 1149M52
Protocol: as §3, §1, §2

[15] = molecular target: T1, human ICOS on human T cells; assay: flow cytometry, activated human CD4 T cells, FITC MFI, donor 1173F42
Protocol: as §1, §2

[16] = molecular target: T1, human ICOS on human T cells; assay: flow cytometry, activated human CD4 T cells, percent FITC positive, donor 1124F36
Protocol: as §3, §1, §2

EC50 [1]: 0.652 µg/mL | EC50 [2]: 1.31 µg/mL | EC50 [3]: 0.583 µg/mL | EC50 [4]: 0.882 µg/mL | EC50 [5]: 0.834 µg/mL | EC50 [6]: 1.04 µg/mL | EC50 [7]: 1.23 µg/mL | EC50 [8]: 0.628 µg/mL | EC50 [9]: 0.27 µg/mL | EC50 [10]: 0.564 µg/mL | Kd (Cyno ICOS-Fc): 949 pM | koff (Cyno ICOS-Fc): 0.000371 s⁻¹ | kon (Cyno ICOS-Fc): 391000 M⁻¹ s⁻¹ | EC50 [11]: 0.965 µg/mL | EC50 [12]: 0.814 µg/mL | EC50 [13]: 0.371 µg/mL | EC50 [14]: 0.74 µg/mL | EC50 [15]: 0.636 µg/mL | EC50 [16]: 0.45 µg/mL
B1: H2L5 hIgG4PE (antibody)
heavy: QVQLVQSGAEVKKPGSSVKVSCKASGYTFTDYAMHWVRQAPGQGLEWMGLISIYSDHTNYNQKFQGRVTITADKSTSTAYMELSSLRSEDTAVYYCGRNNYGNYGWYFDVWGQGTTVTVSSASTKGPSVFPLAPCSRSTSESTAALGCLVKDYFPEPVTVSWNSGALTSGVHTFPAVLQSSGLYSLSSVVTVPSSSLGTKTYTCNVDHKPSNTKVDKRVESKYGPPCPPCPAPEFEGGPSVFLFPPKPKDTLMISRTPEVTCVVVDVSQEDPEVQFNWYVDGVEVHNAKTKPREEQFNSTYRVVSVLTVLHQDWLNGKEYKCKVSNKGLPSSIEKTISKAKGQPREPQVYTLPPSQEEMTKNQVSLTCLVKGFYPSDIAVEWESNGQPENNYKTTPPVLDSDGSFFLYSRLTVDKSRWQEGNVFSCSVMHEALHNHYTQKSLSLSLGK
light: EIVLTQSPATLSLSPGERATLSCSASSSVSYMHWYQQKPGQAPRLLIYDTSKLASGIPARFSGSGSGTDYTLTISSLEPEDFAVYYCFQGSGYPYTFGQGTKLEIKRTVAAPSVFIFPPSDEQLKSGTASVVCLLNNFYPREAKVQWKVDNALQSGNSQESVTEQDSKDSTYSLSSTLTLSKADYEKHKVYACEVTHQGLSSPVTKSFNRGEC
notes: also called 422 H2L5 hIgG4PE; H2L5 IgG4PE; copies: 2 + 2
